According to publication PMC12041195:

Key:
Experiment in all cases: BLI
[1] = target: recombinant HA protein of A/Hong Kong/45/2019 (H3N2) (influenza A virus A/Hong Kong/45/2019 (H3N2))
[2] = target: recombinant HA protein of A/Beijing/262/1995 (H1N1) (influenza A virus A/Beijing/262/1995 (H1N1))
[3] = target: recombinant HA protein of A/New Caledonia/20/1999 (H1N1) (influenza A virus A/New Caledonia/20/1999 (H1N1))
[4] = target: recombinant HA protein of A/Aichi/2/1968 (H3N2) (influenza A virus A/Aichi/2/1968 (H3N2)) (UniProt P03437)

Substance | Kd [1] | Kd [2] | Kd [3] | Kd [4]
IgG-F045-092 (antibody) | 12500 pM |  |  | 
IgM-F045-092 (from UniProt P01591 23-159) (antibody) | < 1 pM | < 1 pM | < 1 pM | < 1 pM
